Experimental data published in article PMC6049025.

Biological target: wild-type HCMV gB expressed in HEK293T cells (human cytomegalovirus (strain not stated)) (UniProt P06473)
Test: far-Western, overlay or dot blot

Sequence of UniProt P06473 (P06473 32-906): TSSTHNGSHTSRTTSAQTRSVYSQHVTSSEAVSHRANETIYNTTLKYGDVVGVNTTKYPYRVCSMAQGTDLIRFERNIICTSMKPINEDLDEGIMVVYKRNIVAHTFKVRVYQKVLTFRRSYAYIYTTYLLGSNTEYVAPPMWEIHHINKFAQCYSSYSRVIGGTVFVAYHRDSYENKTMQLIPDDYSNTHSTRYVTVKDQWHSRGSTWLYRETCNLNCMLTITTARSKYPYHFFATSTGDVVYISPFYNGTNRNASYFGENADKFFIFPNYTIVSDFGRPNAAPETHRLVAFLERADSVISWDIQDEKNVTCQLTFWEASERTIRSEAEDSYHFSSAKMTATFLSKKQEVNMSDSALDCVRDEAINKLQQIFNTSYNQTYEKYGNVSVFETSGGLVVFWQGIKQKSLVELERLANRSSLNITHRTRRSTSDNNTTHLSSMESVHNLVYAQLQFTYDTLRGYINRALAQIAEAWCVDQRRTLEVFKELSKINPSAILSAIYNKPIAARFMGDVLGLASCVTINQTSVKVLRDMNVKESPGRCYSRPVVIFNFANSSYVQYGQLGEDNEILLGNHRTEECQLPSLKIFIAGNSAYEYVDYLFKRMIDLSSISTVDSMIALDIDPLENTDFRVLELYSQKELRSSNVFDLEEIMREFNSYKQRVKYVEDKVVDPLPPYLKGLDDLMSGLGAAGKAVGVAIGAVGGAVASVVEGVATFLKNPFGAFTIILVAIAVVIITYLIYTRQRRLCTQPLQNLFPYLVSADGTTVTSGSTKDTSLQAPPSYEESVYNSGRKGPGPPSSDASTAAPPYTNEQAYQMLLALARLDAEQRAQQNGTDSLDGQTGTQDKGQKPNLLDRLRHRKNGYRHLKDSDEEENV
Sequence of DC-SIGN-Fc (Q9NNX6 59-404): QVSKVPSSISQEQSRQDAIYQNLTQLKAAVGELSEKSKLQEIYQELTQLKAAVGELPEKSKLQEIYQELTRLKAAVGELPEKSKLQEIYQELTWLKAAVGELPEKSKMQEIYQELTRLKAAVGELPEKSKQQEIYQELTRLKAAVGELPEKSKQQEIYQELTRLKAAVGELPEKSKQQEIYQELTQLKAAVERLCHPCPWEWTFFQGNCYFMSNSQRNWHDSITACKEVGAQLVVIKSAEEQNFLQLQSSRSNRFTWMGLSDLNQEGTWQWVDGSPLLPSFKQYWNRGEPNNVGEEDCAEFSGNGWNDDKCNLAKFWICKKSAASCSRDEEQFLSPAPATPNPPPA

“DC-SIGN-Fc (from UniProt Q9NNX6 59-404) (Fc fusion)” was tested, and the DC-SIGN-Fc binding normalized on gB expression (ratio) was 1.15.
